# Results: patent publication US20220088148A1 (HANMI PHARM, published 2022)
# Bridges are numbered along the chain shown (N, C = ends). Where no end group is shown, it is not given here. [ ]: non-standard residue; d: D form. The star is where a group is joined. Acetyl(2-(4-imidazolyl)) = O=C(Cc1c[nH]cn1)*; Aib = CC(C)(N)C(=O)O
# T1: human GIP receptor (human, UniProt P48546 22-466)
# T1 sequence (looked up): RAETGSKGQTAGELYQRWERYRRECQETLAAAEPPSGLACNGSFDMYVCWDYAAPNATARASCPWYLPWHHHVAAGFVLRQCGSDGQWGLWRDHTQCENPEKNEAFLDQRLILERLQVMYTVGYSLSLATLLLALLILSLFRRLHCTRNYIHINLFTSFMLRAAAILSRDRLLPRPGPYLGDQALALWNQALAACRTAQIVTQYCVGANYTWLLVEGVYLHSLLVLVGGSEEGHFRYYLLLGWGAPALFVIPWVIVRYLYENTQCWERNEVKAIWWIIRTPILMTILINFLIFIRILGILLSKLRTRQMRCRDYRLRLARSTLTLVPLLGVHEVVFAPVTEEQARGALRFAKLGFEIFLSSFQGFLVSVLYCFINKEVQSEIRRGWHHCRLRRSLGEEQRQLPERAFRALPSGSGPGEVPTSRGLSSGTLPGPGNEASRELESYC
# Legend:
# Test in all cases: cell-based or functional assay
# human GLP-1 receptor = human GLP-1 receptor (human, UniProt P43220 24-463)
# human GCG receptor = human GCG receptor (human, UniProt P47871 26-477)
# Sequence of human GCG receptor (P47871 26-477): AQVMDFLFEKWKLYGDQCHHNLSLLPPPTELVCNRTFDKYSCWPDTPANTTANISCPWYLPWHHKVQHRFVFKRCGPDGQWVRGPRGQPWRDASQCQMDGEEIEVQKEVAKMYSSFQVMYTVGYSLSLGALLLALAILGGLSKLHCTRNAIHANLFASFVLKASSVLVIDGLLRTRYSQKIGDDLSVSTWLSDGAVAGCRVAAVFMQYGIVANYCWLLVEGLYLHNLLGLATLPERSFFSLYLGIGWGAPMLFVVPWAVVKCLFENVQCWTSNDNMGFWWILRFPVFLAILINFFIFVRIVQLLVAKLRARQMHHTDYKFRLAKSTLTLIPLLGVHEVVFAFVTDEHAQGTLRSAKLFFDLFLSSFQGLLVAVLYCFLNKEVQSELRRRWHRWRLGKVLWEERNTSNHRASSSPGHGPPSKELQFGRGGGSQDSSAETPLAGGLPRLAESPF
# human GIP receptor = biological target: T1, human GIP receptor
Binder,"In vitro activity (%) vs. GLP-1, cAMP EC50 (human GLP-1 receptor)","In vitro activity (%) vs. Glucagon, cAMP EC50 (human GCG receptor)","In vitro activity (%) vs. GIP, cAMP EC50 (human GIP receptor)"
Y[Aib]QGTFTSDYSKYLDEKAAKEFVQWLLDHHPSSGQPPPSC (bridge 16-20) [triple agonist of SEQ ID NO: 75],35.1%,8.5%,18%
{Acetyl(2-(4-imidazolyl))}-[Aib]EGTFTSDYSIAMDEIHQKDFVDWLLAEKC (bridge 15-19) [triple agonist of SEQ ID NO: 91],31.9%,16.8%,0.3%
[Acetyl(2-(4-imidazolyl))][Aib]EGTFTSDYSIAMDEIHQKDFVNWLLAQC (bridge 16-20) [triple agonist of SEQ ID NO: 83],47.3%,1.3%,0.4%
{Acetyl(2-(4-imidazolyl))}-[Aib]QGTFTSDYSIAMDEIHQKDFVNWLLNTC (bridge 15-19) [triple agonist of SEQ ID NO: 87],0.9%,< 0.1%,< 0.1%
H[Aib]EGTFTSDYSIAMDEIHQKDFVNWLLAQKC (bridge 16-20) [triple agonist of SEQ ID NO: 79],41.5%,4.9%,1.4%
Y[Aib]QGTFTSDYSKCLDEKRAKDFVQWLLDHHPSSGQPPPS (bridge 16-20; ends not checked) [triple agonist of SEQ ID NO: 70],15.1%,71.3%,64.4%
Y[Aib]QGTFTSDYSKYLDEKAAKDFVQWLLDHHPSSGQPPPSC (bridge 16-20) [triple agonist of SEQ ID NO: 77],38.7%,12.2%,35.5%
{Acetyl(2-(4-imidazolyl))}-[Aib]QGTFTSDYSKYLDEKRQKEFVQWLLNTKC (bridge 15-19) [triple agonist of SEQ ID NO: 88],9.6%,0.3%,< 0.1%
{Acetyl(2-(4-imidazolyl))}-[Aib]QGTFTSDYSKYLDEKRQKEFVNWLLAQC (bridge 15-19) [triple agonist of SEQ ID NO: 86],28.4%,0.4%,0.2%
H[Aib]QGTFTSDVSKYLDGQAAQEFVAWLLKGC [triple agonist of SEQ ID NO: 8],14.2%,0.1%,< 0.1%
H[Aib]QGTFTSDVSKYLDGQAAQEFVAWLLAGC [triple agonist of SEQ ID NO: 9],32.1%,0.13%,< 0.1%
{Acetyl(2-(4-imidazolyl))}-[Aib]EGTFTSDYSIAMDEIHQKDFVDWLLAEC (bridge 15-19) [triple agonist of SEQ ID NO: 84],4.2%,< 0.1%,< 0.1%
Y[Aib]QGTFTSDYSKYLDERACKDFVQWLLDHHPSSGQPPPS (bridge 16-20; ends not checked) [triple agonist of SEQ ID NO: 71],90.1%,12.7%,94.7%
H[Aib]QGTFTSDYSKYLDEKRQKEFVQWLLDTKC (bridge 16-20) [triple agonist of SEQ ID NO: 78],51%,14%,0.12%
Y[Aib]QGTFTSDYSKYLDEKRAKEFVQWLLDHCPSSGQPPPS (bridge 16-20) [triple agonist of SEQ ID NO: 96],34.4%,195%,5.2%
[Acetyl(2-(4-imidazolyl))][Aib]QGTFTSDYSKYLDECRAKEFVQWLLDHHPSSGQPPPS (bridge 16-20; ends not checked) [triple agonist of SEQ ID NO: 73],22.6%,5.4%,3%
H[Aib]EGTFTSDYSIAMDEIHQKDFVDWLLAEKC (bridge 16-20) [triple agonist of SEQ ID NO: 80],8.1%,0%,0.1%
{Acetyl(2-(4-imidazolyl))}-[Aib]QGTFTSDYSIAMDEIHQKDFVNWLLAQKC (bridge 15-19) [triple agonist of SEQ ID NO: 92],0.8%,< 0.1%,0.4%
{Acetyl(2-(4-imidazolyl))}-[Aib]QGTFTSDYSIAMDEIHQKDFVNWLLNTKC (bridge 15-19) [triple agonist of SEQ ID NO: 94],0.5%,< 0.1%,< 0.1%
Y[Aib]QGTFTSDYSKYLDEKRAKEFVQWLLCHHPSSGQPPPS (bridge 16-20) [triple agonist of SEQ ID NO: 95],2.1%,0.4%,< 0.1%
Y[Aib]QGTFTSDYSKYLDEKRAKDFVQWLLDHHPSSGQPPPSC (bridge 16-20) [triple agonist of SEQ ID NO: 76],10.3%,47.6%,11.7%
[Acetyl(2-(4-imidazolyl))][Aib]QGTFTSDYSIAMDEIHQKDFVNWLLAQC (bridge 16-20) [triple agonist of SEQ ID NO: 85],4.3%,< 0.1%,0.3%
{Acetyl(2-(4-imidazolyl))}-[Aib]QGTFTSDYSKYLDEKRQKEFVNWLLAQKC (bridge 15-19) [triple agonist of SEQ ID NO: 93],5.7%,0.3%,0.7%
Y[Aib]QGTFTSDCSKYLDERAAKDFVQWLLDHHPSSGQPPPS (bridge 16-20; ends not checked) [triple agonist of SEQ ID NO: 72],11.5%,1%,1.6%
{Acetyl(2-(4-imidazolyl))}-[Aib]QGTFTSDYSKYLDEKRQKEFVQWLLDTC (bridge 15-19) [triple agonist of SEQ ID NO: 82],9.5%,1.1%,< 0.1%
{Acetyl(2-(4-imidazolyl))}-[Aib]QGTFTSDYSKYLDEKRQKEFVQWLLDTKC (bridge 15-19) [triple agonist of SEQ ID NO: 89],7.1%,0.7%,< 0.1%
{Acetyl(2-(4-imidazolyl))}-[Aib]EGTFTSDYSIAMDEIHQKDFVNWLLAQKC (bridge 15-19) [triple agonist of SEQ ID NO: 90],7.4%,< 0.1%,< 0.1%
H[Aib]QGTFTSDVSKYLDGQAAQEFVAWLLAGGGPSSGAPPPSC [triple agonist of SEQ ID NO: 10],46%,< 0.1%,< 0.1%
{Acetyl(2-(4-imidazolyl))}-[Aib]QGTFTSDYSKCLDEKRAKEFVQWLLDHHPSSGQPPPS (bridge 15-19) [triple agonist of SEQ ID NO: 74],12.9%,0.9%,1%
{Acetyl(2-(4-imidazolyl))}-[Aib]QGTFTSDYSKYLDEKRQKEFVQWLLNTC (bridge 15-19) [triple agonist of SEQ ID NO: 81],7.8%,0.3%,< 0.1%
